# Assay results as given in the supplement of paper PMC10724198.
# Key:
# Saccharomyces cerevisiae [1] = experiment: protein stability index of tFT-peptide fusion in wild type (PSI (0-1 scale)); higher = more stable (slower turnover); details: genetic background: wild type
# Description: (§1)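 MPS profiling in S. cerevisiae of two library types built from selected 12-aa C-degron peptides (IN1, IN2, LN1, LN3, VN2, R1-R5, W1-W3, Atg1 and Rpa12 C-termini): saturation mutagenesis libraries and C-terminal +1 capping libraries (13 aa). Each peptide is fused to the C-terminus of a sfGFP-mCherry timer, after a GGGS linker. Cells are FACS-sorted into 8 mCherry/sfGFP bins and sequenced. PSI runs from 0 (unstable) to 1 (stable), measured once in wild type and in the das1Δ or doa10Δ background.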
# Saccharomyces cerevisiae [2] = experiment: protein stability index of tFT-peptide fusion in deletion strain of DAS1 (PSI (0-1 scale)); higher = more stable (slower turnover)
# Description: as §1
# 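Throughout, for protein stability index of tFT-peptide fusion in deletion strain of DAS1: PSI is a weighted mean of each variant's read distribution over the sorted stability bins, computed only for variants having over 10 reads in total.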
# 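Throughout, for protein stability index of tFT-peptide fusion in wild type: PSI derived as read-weighted mean over the 8 sorting bins, only variants exceeding 10 total reads kept, mCherry placed adjacent to the peptide and sfGFP distal.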
Sequence,protein stability index (Saccharomyces cerevisiae [1]),protein stability index (Saccharomyces cerevisiae [2])
LKILRPKMNHQN,0.541,0.669
KKHKKGQKQKINA,0.259,0.655
KWHKKGQKQKIN,0.108,0.562
KKHKKGQCQKIN,0.16,0.801
PSLAASFWMVVG,0.525,0.637
AYWRVGLWRGAS,0.449,0.699
LVVYLSDVACIN,0.458,0.495
KKHKKGQKQHIN,0.435,0.648
LVVYLSCVACGN,0.0824,0.0998
LKILRQKMNHVN,0.206,0.666
VRGALGGWRLVG,0.171,0.669
PDKRNKLIKLLN,0.115,0.671
RLIQPLPVQFLNW,0.667,0.686
ARWRYGLWRGAS,0.489,0.678
LKILRFKMNHQN,0.201,0.667
ARWRVGLWRGGS,0.672,0.684
ARWRVGLWRGAN,0.121,0.687
LVVALSCVACIN,0.0223,0.0802
ARWRVGHWRGAS,0.582,0.703
ARWRVFLWRGAS,0.432,0.674
KKHKKGQHQKIN,0.0824,0.579
RQIQPLPVQFLN,0.124,0.604
LKILRQKMNHQNE,0.652,0.656
RLNQPLPVQFLN,0.0569,0.605
ARWRCGLWRGAS,0.574,0.695
VRGAVKGWRLVG,0.148,0.68
PDKRNHLIKKLN,0.0795,0.581
PSLATSFWRVVG,0.158,0.687
PDKRNHLIKLLQ,0.205,0.605
LVVYLSCVAIIN,0.0151,0.0381
